These results are taken from patent US20250122303A1, “TREATMENT AND PREVENTION OF CANCER USING HER3 ANTIGEN-BINDING MOLECULES” (Hummingbird Bioscience Pte. Ltd., priority 2021, published 2025).

The subject of experiment [1] is FaDu cell-line derived mouse model of head and neck squamous cell carcinoma. Briefly: FaDu cell-line derived xenograft model. It counts as in vivo. Here is the method:
Tumor volumes were measured 3 times a week using a digital caliper and calculated using the formula [L ×W2/2]. Study End point was considered to have been reaches once the tumors of the control arm measured >1.5 cm in length.
The model was established by subcutaneous injection of 1×10^6 FaDu cells into the right flanks of female NPG mice (NOD scid gamma phenotype; n=6 mice per treatment group).
10D1 was administered IP, weekly at 500 μg per dose (for a total of 4 doses). Control treatment groups received an equal volume of PBS, or the same dose of an isotype control antibody.
The model was established by subcutaneous injection of 1×10^6 FaDu cells into the right flanks of female NCr nude mice (n=6 mice per treatment group).
10D1 was administered IP, biweekly at 500 μg per dose (for a total of 8 doses); a control treatment group received an equal volume of PBS.
Tumour cells were inserted with matrigel subcutaneously into the right flanks of female NCr nude mice.
Murine tumour efficacy studies were performed using cell-line derived xenograft (CDX) models in mice. Female NCr nude mice (5-8 weeks old, 21-29 g) were subcutaneously implanted with N87, A549, FaDu, OvCAR8 cells. Treatment was initiated when tumours reached approximately 100 to 200 mm^3. […] Tumours were measured twice per week using a calliper and tumour volume (mm^3) was calculated. […]

Experiment [2] has as its target T1, human HER3 (HEK293 HER3 O/E cells) (Homo sapiens, UniProt P21860).
T1 construct: expressed in transfected cells; host or cells: HEK293
Kind of experiment: Cell surface antigen-binding by flow cytometry. Here is the method:
The cells were washed thrice with FACS buffer (PBS with 5 mM EDTA and 0.5% BSA) and resuspended in FITC-conjugated anti-FC antibody (Invitrogen, USA) for 40 min at 2-8° C. Cells were washed again and resuspended in 200 μL of FACS flow buffer (PBS with 5 mM EDTA) for flow cytometric analysis using MACSQuant 10 (Miltenyi Biotec, Germany). After acquisition, all raw data were analyzed using Flowlogic software. Cells were gated using forward and side scatter profile percentage of positive cells was determined for native and overexpressing cell populations.
The cells were washed with buffer (PBS with 2 mM EDTA and 0.5% BSA) and resuspended in FITC-conjugated anti-FC antibody (Invitrogen, USA) at 10 μg/ml for 20 min at 4° C. Cells were washed again and resuspended in 200 μL of FACS flow buffer (PBS with 5 mM EDTA) for flow cytometric analysis using MACSQuant 10 (Miltenyi Biotec, Germany). Unstained WT and transfected HEK293 cells were included in the analysis as negative controls. After acquisition, all raw data were analyzed using Flowlogic software. Cells were gated using forward and side scatter profile percentage of positive cells was determined for native and overexpressing cell populations.

The subject of experiment [3] is HER3-mediated signalling. Briefly: Phospho-western blot of HER3-mediated signalling in cancer cell lines. The conditions noted are these: N87 and FaDu cells, 50 μg/ml 4 hrs, NRG 100 ng/ml. It counts as cell-based, human. The procedure: Briefly, N87 and FaDu cells were seeded in wells of a 6 well plate with 10% serum at 37° C., 5% CO2. After 16 hrs, cells were starved by culture overnight in 1% FBS cell culture medium (to reduce signalling elicited by growth factors in the serum). On the following day cells were treated with 50 μg/ml anti-HER3 antibody 10D1 for 4 hrs, followed by 15 min stimulation with NRG (100 ng/ml). Proteins were then extracted, quantified using standard Bradford protein assay, fractionated by SDS-PAGE, and transferred to nitrocellulose membranes. The membranes were then blocked and immunoblotted with the following antibodies overnight at 4° C. anti-pHER3, anti-pAKT, pan anti-HER3, pan anti-AKT and anti-beta-actin. The blots were visualized via Bio-Rad Clarity Western ECL substrate, and bands were quantified using densiometric analysis; data were normalized to beta actin controls.
N87, FaDu or OvCAR8 cells were seeded in wells in a 6 well plate with 10% serum overnight at 37° C. with 5% CO2.
Before harvesting, cells were stimulated with 100 ng/ml of NRG1. Protein extracted from cell lines were quantified using standard Bradford protein assay. Protein samples (50 μg) were fractionated by SDS-PAGE and transferred to nitrocellulose membrane. […] The blots were quantified using densiometric analysis and data was normalised to beta actin. […]

Experiment [4] has as its target T2, human HER2 (Homo sapiens, UniProt P04626).
T2 construct: purchased Sino Biological Inc., China
Kind of experiment: ELISA specificity, human HER2. It counts as binding. The conditions noted are these: antibody up to 10 μg/ml. Here is the method:
ELISAs were used to determine the binding specificity of the antibodies. The antibodies were analysed for binding to human HER3 polypeptide, as well as respective mouse, rat and monkey homologues of HER3 (Sino Biological Inc., China). The antibodies were also analysed for their ability to bind to human EGFR and human HER2 (Sino Biological Inc., China).
ELISAs were carried out according to standard protocols. Briefly, 96-well plates (Nunc, Denmark) were coated with 0.1 μg/ml of target polypeptide in phosphate-buffered saline (PBS) for 16 h at 4° C. After blocking for 1 h with 1% BSA in Tris buffer saline (TBS) at room temperature, the anti-HER3 antibody was serially diluted with the highest concentration being 10 μg/ml, and added to the plate. Post 1 h incubation at room temperature, plates were washed three times with TBS containing 0.05% Tween 20 (TBS-T) and were then incubated with a HRP-conjugated anti-His antibody (Life Technologies, Inc., USA) for 1 h at room temperature. […] The reaction was stopped with 2M H2SO4, and OD was measured at 450 nm.
The antibodies were analysed for their ability to bind to human HER3 polypeptide as well as human HER1 (EGFR) and human HER2 (Sino Biological Inc., China). […]
ELISAs were carried out according to standard protocols. […] The reaction was stopped with 2M H2SO4, and OD was measured at 450 nm.
(ELISA stands for enzyme-linked immunosorbent assay.)

B1: 10D1: anti-HER3 antibody clone, VH SEQ ID NO:24, VL SEQ ID NO:74; [1] of Example 2.2 (antibody, V domains shown)
VH: DVQLQESGPDLVKPSQSLSLTCTVTGYSITSGYSWHWIRQFPGNKLEWMGSIHYSGGTNYNPSLKSRISITRDTSKNQFFLQLNSVTTEDTATYFCARMTTAPRYPFDYWGQGTTLTVSS
VL: DIVMTQSQKFMSTSVGDRVSVTCKASQIVGSNVAWYQQKPGQSPKPLIYSASYRYSGVPDRFTASGSGTDFTLTITNVQSEDLAEYFCQQYSSHPLTFGAGTKLELK
In the case of B1, the “inhibition of tumor growth” value is reported as about 86% in experiment [1] (NCr nude mice, IP biweekly 500 μg, 8 doses) and about 85% in experiment [1] (NPG mice, IP weekly 500 μg, 4 doses). Besides, the “extent of binding to human HER3-expressing cells” value in experiment [2] (10 μg/ml antibody) and in experiment [2] (20 μg/ml antibody) was “bind to human HER3-expressing cells to a similar extent” in each case. For the same molecule, the “HER3 phosphorylation and downstream signalling” value in experiment [3] is “inhibit HER3 phosphorylation and downstream signalling”. Further, the “binding to human HER2” value in experiment [4] was “not to bind”.
